B1: ZNF277 (parent)
chain: ILREELQKQRLREILEQQQQERND
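Also: lentivirally expressed fusions sorted by FACS into six bins by GFP to DsRed ratio, PSI derived from sequencing read proportions per bin multiplied by bin number.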

Variants of: B1
Assay: protein stability index of a GFP-peptide fusion (GPS, HEK-293T) (PSI 1-6); higher = more stable
Conditions: c terminus: a fixed tail appended
ILREELQKQRLGEILEQQQQERND gave a protein stability index of 5.05. For ILREELQKQRLCEILEQQQQERND, the protein stability index was 4.45. ILREELQKQRLEEILEQQQQERND gave a protein stability index of 5.08. ILREELQKQRLKEILEQQQQERND gave a protein stability index of 4.6. ILREELQKQRLIEILEQQQQERND showed a protein stability index of 4.15. Variant ILREELQKQRLDEILEQQQQERND has a protein stability index of 5.8. For ILREELQKQRLPEILEQQQQERND, the protein stability index was 4.78. Variant ILREELQKQRLMEILEQQQQERND has a protein stability index of 4.58. In the case of ILREELQKQRLYEILEQQQQERND, the protein stability index is reported as 3.87. For ILREELQKQRLHEILEQQQQERND, the protein stability index was 4.14. ILREELQKQRLVEILEQQQQERND gave a protein stability index of 4.41. With ILREELQKQRLWEILEQQQQERND the protein stability index was 3.67. In the case of ILREELQKQRLRSILEQQQQERND, the protein stability index is reported as 4.18. In the case of ILREELQKQRLRNILEQQQQERND, the protein stability index is reported as 4.05. Variant ILREELQKQRLRVILEQQQQERND has a protein stability index of 4.06. With ILREELQKQRLRTILEQQQQERND the protein stability index was 4.58. ILREELQKQRLRLILEQQQQERND showed a protein stability index of 3.75. With ILREELQKQRLRHILEQQQQERND the protein stability index was 4.46. Work on ILREELQKQRLRPILEQQQQERND yielded a protein stability index of 4.56. With ILREELQKQRLRAILEQQQQERND the protein stability index was 3.74. ILREELQKQRLRMILEQQQQERND gave a protein stability index of 4.01. In the case of ILREELQKQRLRYILEQQQQERND, the protein stability index is reported as 4.07. Work on ILREELQKQRLRIILEQQQQERND yielded a protein stability index of 4.06. ILREELQKQRLRRILEQQQQERND gave a protein stability index of 4.11. In the case of ILREELQKQRLRKILEQQQQERND, the protein stability index is reported as 4.22. For ILREELQKQRLRCILEQQQQERND, the protein stability index was 3.76. In the case of ILREELQKQRLRFILEQQQQERND, the protein stability index is reported as 3.77. With ILREELQKQRLRGILEQQQQERND the protein stability index was 4.54. With ILREELQKQRLRQILEQQQQERND the protein stability index was 4.22. In the case of ILREALQKQRLREILEQQQQERND, the protein stability index is reported as 2.71. ILREKLQKQRLREILEQQQQERND showed a protein stability index of 4.51. With ILREGLQKQRLREILEQQQQERND the protein stability index was 5.27. For ILREDLQKQRLREILEQQQQERND, the protein stability index was 4.76. ILRERLQKQRLREILEQQQQERND showed a protein stability index of 3.68. ILREILQKQRLREILEQQQQERND gave a protein stability index of 2.94. For ILREPLQKQRLREILEQQQQERND, the protein stability index was 4.47. ILRECLQKQRLREILEQQQQERND showed a protein stability index of 3.76. For ILREFLQKQRLREILEQQQQERND, the protein stability index was 2.35. ILREHLQKQRLREILEQQQQERND showed a protein stability index of 3.81. ILREWLQKQRLREILEQQQQERND showed a protein stability index of 2.84. For ILREQLQKQRLREILEQQQQERND, the protein stability index was 4.17. Variant ILRESLQKQRLREILEQQQQERND has a protein stability index of 3.99. In the case of ILREVLQKQRLREILEQQQQERND, the protein stability index is reported as 2.42. ILREYLQKQRLREILEQQQQERND gave a protein stability index of 3.55. With ILRENLQKQRLREILEQQQQERND the protein stability index was 4.7. ILREMLQKQRLREILEQQQQERND showed a protein stability index of 3.05. ILREELKKQRLREILEQQQQERND showed a protein stability index of 3.46. Variant ILREELCKQRLREILEQQQQERND has a protein stability index of 4.24. In the case of ILREELVKQRLREILEQQQQERND, the protein stability index is reported as 3.58. Work on ILREELTKQRLREILEQQQQERND yielded a protein stability index of 3.62. ILREELWKQRLREILEQQQQERND showed a protein stability index of 2.37. ILREELMKQRLREILEQQQQERND gave a protein stability index of 3.74. Variant ILREELFKQRLREILEQQQQERND has a protein stability index of 2.93. With ILREELAKQRLREILEQQQQERND the protein stability index was 4.12. Work on ILREELGKQRLREILEQQQQERND yielded a protein stability index of 5.06. Variant ILREELEKQRLREILEQQQQERND has a protein stability index of 5.22. ILREELRKQRLREILEQQQQERND gave a protein stability index of 4.1. For ILREELLKQRLREILEQQQQERND, the protein stability index was 3.64. ILREELSKQRLREILEQQQQERND showed a protein stability index of 4.11. For ILREELPKQRLREILEQQQQERND, the protein stability index was 5. ILREELHKQRLREILEQQQQERND showed a protein stability index of 4.47. ILREELNKQRLREILEQQQQERND gave a protein stability index of 4.44. ILREELDKQRLREILEQQQQERND gave a protein stability index of 4.26. ILREELIKQRLREILEQQQQERND gave a protein stability index of 2.9. Variant ILREELQTQRLREILEQQQQERND has a protein stability index of 4. Work on ILREELQDQRLREILEQQQQERND yielded a protein stability index of 4.43. Work on ILREELQRQRLREILEQQQQERND yielded a protein stability index of 3.66. Variant ILREELQFQRLREILEQQQQERND has a protein stability index of 4.38. In the case of ILREELQIQRLREILEQQQQERND, the protein stability index is reported as 3.1. Variant ILREELQHQRLREILEQQQQERND has a protein stability index of 4.41. Work on ILREELQMQRLREILEQQQQERND yielded a protein stability index of 4.12. With ILREELQSQRLREILEQQQQERND the protein stability index was 4.81. With ILREELQWQRLREILEQQQQERND the protein stability index was 3.82. ILREELQVQRLREILEQQQQERND gave a protein stability index of 4.07. With ILREELQQQRLREILEQQQQERND the protein stability index was 4.98. ILREELQEQRLREILEQQQQERND showed a protein stability index of 5.3. In the case of ILREELQNQRLREILEQQQQERND, the protein stability index is reported as 4.53. Variant ILREELQGQRLREILEQQQQERND has a protein stability index of 4.82. Variant ILREELQCQRLREILEQQQQERND has a protein stability index of 3.96. For ILREELQYQRLREILEQQQQERND, the protein stability index was 4.11. ILREELQPQRLREILEQQQQERND showed a protein stability index of 5.07. ILREELQLQRLREILEQQQQERND gave a protein stability index of 3.63. ILREELQAQRLREILEQQQQERND showed a protein stability index of 4.7. For ILRMELQKQRLREILEQQQQERND, the protein stability index was 3.75. For ILRTELQKQRLREILEQQQQERND, the protein stability index was 4.42. With ILRQELQKQRLREILEQQQQERND the protein stability index was 3.99. With ILRWELQKQRLREILEQQQQERND the protein stability index was 3.28. With ILRRELQKQRLREILEQQQQERND the protein stability index was 3.61. For ILRLELQKQRLREILEQQQQERND, the protein stability index was 3.05. For ILRYELQKQRLREILEQQQQERND, the protein stability index was 3.38. ILRNELQKQRLREILEQQQQERND gave a protein stability index of 4.16. Work on ILRSELQKQRLREILEQQQQERND yielded a protein stability index of 4.18. Variant ILRPELQKQRLREILEQQQQERND has a protein stability index of 4.95. ILRVELQKQRLREILEQQQQERND showed a protein stability index of 3.88.
